Data published in the Human Domainome abundance scans (Beltran et al. 2025).
± gives the uncertainty stated by the source.

B1: Double-stranded RNA-binding protein Staufen homolog 1, residues 183 to 249; numbered along this chain, O95793 (parent)
chain: KSEISQVFEIALKRNLPVNFEVARESGPPHMKNFVTKVSVGEFVGEGEGKSKKISKKNAAIAVLEEL

Variants of: B1
Assay: abundance fitness (aPCA) (normalised: wild type 0, dead -1); higher = more abundant; growth selection in yeast, the domain comes from the species named
Details: Homo sapiens
For KSEISQVFEIAAKRNLPVNFEVARESGPPHMKNFVTKVSVGEFVGEGEGKSKKISKKNAAIAVLEEL [L12A], the abundance fitness was 0.111 ± 0.069.
KSEISQVFEIARKRNLPVNFEVARESGPPHMKNFVTKVSVGEFVGEGEGKSKKISKKNAAIAVLEEL [L12R] showed an abundance fitness of 0.127 ± 0.06.
KSEISQVFEIATKRNLPVNFEVARESGPPHMKNFVTKVSVGEFVGEGEGKSKKISKKNAAIAVLEEL [L12T] showed an abundance fitness of -0.155 ± 0.11.
For KSEISQVFEIAMKRNLPVNFEVARESGPPHMKNFVTKVSVGEFVGEGEGKSKKISKKNAAIAVLEEL [L12M], the abundance fitness was 0.011 ± 0.079.
KSEISQVFEIANKRNLPVNFEVARESGPPHMKNFVTKVSVGEFVGEGEGKSKKISKKNAAIAVLEEL [L12N] gave an abundance fitness of 0.081 ± 0.11.
Variant KSEISQVFEIACKRNLPVNFEVARESGPPHMKNFVTKVSVGEFVGEGEGKSKKISKKNAAIAVLEEL [L12C] has an abundance fitness of -0.06 ± 0.099.
KSEISQVFEIAKKRNLPVNFEVARESGPPHMKNFVTKVSVGEFVGEGEGKSKKISKKNAAIAVLEEL [L12K] showed an abundance fitness of -0.029 ± 0.22.
For KSEISQVFEIAIKRNLPVNFEVARESGPPHMKNFVTKVSVGEFVGEGEGKSKKISKKNAAIAVLEEL [L12I], the abundance fitness was -0.026 ± 0.22.
In the case of KSEISQVFEIAWKRNLPVNFEVARESGPPHMKNFVTKVSVGEFVGEGEGKSKKISKKNAAIAVLEEL [L12W], the abundance fitness is reported as -0.063 ± 0.096.
With KSEISQVFEIADKRNLPVNFEVARESGPPHMKNFVTKVSVGEFVGEGEGKSKKISKKNAAIAVLEEL [L12D] the abundance fitness was -0.047 ± 0.17.
KSEISQVFEIAEKRNLPVNFEVARESGPPHMKNFVTKVSVGEFVGEGEGKSKKISKKNAAIAVLEEL [L12E] gave an abundance fitness of -0.085 ± 0.076.
With KSEISQVFEIAQKRNLPVNFEVARESGPPHMKNFVTKVSVGEFVGEGEGKSKKISKKNAAIAVLEEL [L12Q] the abundance fitness was 0.01 ± 0.17.
For KSEISQVFEIAFKRNLPVNFEVARESGPPHMKNFVTKVSVGEFVGEGEGKSKKISKKNAAIAVLEEL [L12F], the abundance fitness was -0.075 ± 0.13.
With KSEISQVFEIAYKRNLPVNFEVARESGPPHMKNFVTKVSVGEFVGEGEGKSKKISKKNAAIAVLEEL [L12Y] the abundance fitness was 0.066 ± 0.14.
KSEISQVFEIAPKRNLPVNFEVARESGPPHMKNFVTKVSVGEFVGEGEGKSKKISKKNAAIAVLEEL [L12P] showed an abundance fitness of -0.645 ± 0.12.
Work on KSEISQVFEIAGKRNLPVNFEVARESGPPHMKNFVTKVSVGEFVGEGEGKSKKISKKNAAIAVLEEL [L12G] yielded an abundance fitness of -0.035 ± 0.067.
Work on KSEISQVFEIAHKRNLPVNFEVARESGPPHMKNFVTKVSVGEFVGEGEGKSKKISKKNAAIAVLEEL [L12H] yielded an abundance fitness of -0.032 ± 0.34.
Work on KSEISQVFEIASKRNLPVNFEVARESGPPHMKNFVTKVSVGEFVGEGEGKSKKISKKNAAIAVLEEL [L12S] yielded an abundance fitness of 0.028 ± 0.081.
Work on KSEISQVFEIWLKRNLPVNFEVARESGPPHMKNFVTKVSVGEFVGEGEGKSKKISKKNAAIAVLEEL [A11W] yielded an abundance fitness of -0.91 ± 0.095.
For KSEISQVFEITLKRNLPVNFEVARESGPPHMKNFVTKVSVGEFVGEGEGKSKKISKKNAAIAVLEEL [A11T], the abundance fitness was -0.653 ± 0.087.
KSEISQVFEIMLKRNLPVNFEVARESGPPHMKNFVTKVSVGEFVGEGEGKSKKISKKNAAIAVLEEL [A11M] showed an abundance fitness of -0.913 ± 0.098.
Variant KSEISQVFEISLKRNLPVNFEVARESGPPHMKNFVTKVSVGEFVGEGEGKSKKISKKNAAIAVLEEL [A11S] has an abundance fitness of -0.358 ± 0.048.
Work on KSEISQVFEIYLKRNLPVNFEVARESGPPHMKNFVTKVSVGEFVGEGEGKSKKISKKNAAIAVLEEL [A11Y] yielded an abundance fitness of -0.967 ± 0.14.
Variant KSEISQVFEINLKRNLPVNFEVARESGPPHMKNFVTKVSVGEFVGEGEGKSKKISKKNAAIAVLEEL [A11N] has an abundance fitness of -0.564 ± 0.082.
Work on KSEISQVFEIRLKRNLPVNFEVARESGPPHMKNFVTKVSVGEFVGEGEGKSKKISKKNAAIAVLEEL [A11R] yielded an abundance fitness of -0.829 ± 0.063.
Work on KSEISQVFEIVLKRNLPVNFEVARESGPPHMKNFVTKVSVGEFVGEGEGKSKKISKKNAAIAVLEEL [A11V] yielded an abundance fitness of -0.892 ± 0.065.
In the case of KSEISQVFEIPLKRNLPVNFEVARESGPPHMKNFVTKVSVGEFVGEGEGKSKKISKKNAAIAVLEEL [A11P], the abundance fitness is reported as -0.891 ± 0.1.
In the case of KSEISQVFEIQLKRNLPVNFEVARESGPPHMKNFVTKVSVGEFVGEGEGKSKKISKKNAAIAVLEEL [A11Q], the abundance fitness is reported as -0.732 ± 0.098.
In the case of KSEISQVFEIALLRNLPVNFEVARESGPPHMKNFVTKVSVGEFVGEGEGKSKKISKKNAAIAVLEEL [K13L], the abundance fitness is reported as -0.213 ± 0.042.
With KSEISQVFEIALMRNLPVNFEVARESGPPHMKNFVTKVSVGEFVGEGEGKSKKISKKNAAIAVLEEL [K13M] the abundance fitness was -0.213 ± 0.09.
With KSEISQVFEIALDRNLPVNFEVARESGPPHMKNFVTKVSVGEFVGEGEGKSKKISKKNAAIAVLEEL [K13D] the abundance fitness was -0.327 ± 0.085.
With KSEISQVFEIALIRNLPVNFEVARESGPPHMKNFVTKVSVGEFVGEGEGKSKKISKKNAAIAVLEEL [K13I] the abundance fitness was -0.26 ± 0.096.
In the case of KSEISQVFEIALRRNLPVNFEVARESGPPHMKNFVTKVSVGEFVGEGEGKSKKISKKNAAIAVLEEL [K13R], the abundance fitness is reported as -0.071 ± 0.046.
KSEISQVFEIALFRNLPVNFEVARESGPPHMKNFVTKVSVGEFVGEGEGKSKKISKKNAAIAVLEEL [K13F] gave an abundance fitness of -0.436 ± 0.11.
With KSEISQVFEIALPRNLPVNFEVARESGPPHMKNFVTKVSVGEFVGEGEGKSKKISKKNAAIAVLEEL [K13P] the abundance fitness was -0.528 ± 0.085.
KSEISQVFEIALERNLPVNFEVARESGPPHMKNFVTKVSVGEFVGEGEGKSKKISKKNAAIAVLEEL [K13E] gave an abundance fitness of -0.183 ± 0.072.
KSEISQVFEIALCRNLPVNFEVARESGPPHMKNFVTKVSVGEFVGEGEGKSKKISKKNAAIAVLEEL [K13C] gave an abundance fitness of -0.296 ± 0.084.
Variant KSEISQVFEIALQRNLPVNFEVARESGPPHMKNFVTKVSVGEFVGEGEGKSKKISKKNAAIAVLEEL [K13Q] has an abundance fitness of -0.079 ± 0.069.
In the case of KSEISQVFEIALARNLPVNFEVARESGPPHMKNFVTKVSVGEFVGEGEGKSKKISKKNAAIAVLEEL [K13A], the abundance fitness is reported as -0.019 ± 0.056.
Work on KSEISQVFEIALGRNLPVNFEVARESGPPHMKNFVTKVSVGEFVGEGEGKSKKISKKNAAIAVLEEL [K13G] yielded an abundance fitness of -0.308 ± 0.043.
